Read-outs that look alike come from different tables or passages of the source. Where no end group is shown, it is not given here. [ ]: non-standard residue; d: D form. The star is where a group is joined. Biotin = O=C1N[C@H]2[C@H](CS[C@H]2CCCCC(=O)*)N1; pY = N[C@@H](Cc1ccc(OP(=O)(O)O)cc1)C(=O)O; Ahx = NCCCCCC(=O)O
Columns and labels:
[1] = molecular target: T1, pTyr-containing peptide (pEZ) derived from Ezrin, PPV{pTyr}EPVS (also: N-terminal fluorescein (FP) or biotin via two aminocaproic acids (ELISA)); experiment: competition binding
T1 peptide: PPV[pY]EPVS

[2] = molecular target: T1, pTyr-containing peptide (pEZ) derived …; experiment: competition binding
[3] = molecular target: T2, pMT peptide EEPQ{pTyr}EEIPIY; experiment: competition binding
T2 peptide: {Biotin-Ahx-Ahx}-EEPQ[pY]EEIPIY

[4] = molecular target: T2, pMT peptide EEPQ{pTyr}EEIPIY; experiment: competition binding
[5] = molecular target: T3, Phosphopeptide PPPT{pTyr}TEVDP; experiment: competition
T3 peptide: {Biotin-Ahx-Ahx}-PPPT[pY]TEVDP

[6] = molecular target: T4, Phosphopeptide QGVI{pTyr}SDLNLP; experiment: competition binding
T4 peptide: {Biotin-Ahx-Ahx}-QGVI[pY]SDLNLP

[7] = molecular target: T5, Phosphopeptide KQVE{pTyr}LDLDLD; experiment: competition binding
T5 peptide: {Biotin-Ahx-Ahx}-KQVE[pY]LDLDLD

B1: sFes^1 (SuperFes), superbinder Fes SH2 domain variant (designed binder)
chain: MKIEEHHHHHHSSGKLGLNDIFEAQKIEWHESSGEDLYFQSGTTMDDYKDDDDKGGSEVQKPLHEQLWYHGAIPRAEVAELLVHSGDFLVREGQSQPDYVLSVLWDGLPRHFIIQSLDNLYRLEGEGFPSIPLLIDHLLSTQQPLTKKSGVVLHRAVPSR
IC50 [1]: 4 nM | IC50 [2]: 1.6 nM

B2: Src^sFes, Src SH2 domain with the sFes superbinder motif grafted (designed binder)
chain: MKIEEHHHHHHSSGKLGLNDIFEAQKIEWHESSGEDLYFQSGTTMDDYKDDDDKGGSDGIQAEEWYFGKITRRESERLLLNAENPRGTFLVREGQSQPDYVLSVSDFDNAKGLNVKHYIIRKLDSGGFYITSRTQFNSLQQLVAYYSKHADGLCHRLTTVCPSR
IC50 [3]: 21 nM | IC50 [4]: 4.3 nM

B3: Ptn11_C^G-αA2-R sSrc (protein)
chain: MKIEEHHHHHHSSGKLGLNDIFEAQKIEWHESSGEDLYFQSGTTMDDYKDDDDKGSLNCADPTSERWFHGHLSRKEAEKLLTEKGKHGSFLVRESETVKGAFALSVRTGDDKGESNDGKSKVTHVLIRCQELKYDVGGGERFDSLTDLVEHYKKNPMVETLGTVLQLKQPLNTTRINAADSR
IC50 [5]: 1900 nM

B4: Fes^sSrc, Fes SH2 domain with the sSrc superbinder motif grafted (designed binder)
chain: MKIEEHHHHHHSSGKLGLNDIFEAQKIEWHESSGEDLYFQSGTTMDDYKDDDDKGGSEVQKPLHEQLWYHGAIPRAEVAELLVHSGDFLVRESETVKGAYALSVLWDGLPRHFLIQSLDNLYRLEGEGFPSIPLLIDHLLSTQQPLTKKSGVVLHRAVPSR
IC50 [1]: 70 nM | IC50 [2]: 42 nM

B5: Ptn6_C^G-αA2-R sFes (protein)
chain: MKIEEHHHHHHSSGKLGLNDIFEAQKIEWHESSGEDLYFQSGTTMDDYKDDDDKGSLNCSDPTSERWYHGHMSRGQAETLLQAKGEPWTFLVREGQSQPDFVLSVLSDQPKAGPGSPLRVTHIIVMCEGGRYTVGGLETFDSLTDLVEHFKKTGIEEASGAFVYLRQPYYATRVNAADSR
IC50 [6]: 900 nM

B6: Ptn11_N^G-αA2-R sSrc (protein)
chain: MKIEEHHHHHHSSGKLGLNDIFEAQKIEWHESSGEDLYFQSGTTMDDYKDDDDKGGSGSMTSRRWFHPNITRVEAENLLLTRGVDGSFLARPSETVKGAFALSVRRNGAVTHILIQNTGDYYDLYGGEKFATLAELVQYYMEHHGQLKEKNGDVIELKYPLNCADSR
IC50 [7]: 17 nM

B7: Fes SH2 domain, wild type (Fes^wt) (other)
chain: WYHGAIPRAEVAELLVHSGDFLVRESQGKQEYVLSVLWDGLPRHFIIQSLDNLYRLEGEGFPSIPLLIDHLLSTQQPLTKKSGVVLHRAV
IC50 [1]: 6000 nM | IC50 [2]: 4600 nM

B8: Ptn11_N^G-αA2-R sFes (protein)
chain: MKIEEHHHHHHSSGKLGLNDIFEAQKIEWHESSGEDLYFQSGTTMDDYKDDDDKGGSGSMTSRRWFHPNITRVEAENLLLTRGVDGSFLARPGQSQPDFVLSVRRNGAVTHIIIQNTGDYYDLYGGEKFATLAELVQYYMEHHGQLKEKNGDVIELKYPLNCADSR
IC50 [7]: 74 nM

From patent US20260055143A1 (published 2026)
